Laboratory results from PMC7432094, “Flexible NAD^+ Binding in Deoxyhypusine Synthase Reflects the Dynamic Hypusine Modification of Translation Factor IF5A” (International Journal of Molecular Sciences, 2020).

Target: the molecule itself
Experiment: crystal structure; sitting drop, 20 °C, 100 mM phosphate-citrate pH 4.8, 32% ethanol, 5% PEG 1000; four PhoDHS molecules in the asymmetric unit, dimer of dimers with point group D2

B1: deoxyhypusine synthase from Pyrococcus horikoshii OT3 (enzyme, UniProt O50105 1-342, looked up)
chain: MKAKDIVLKKSEKIEGVEVKGPWLDDAQSLEEVVSYYYRIGFQATHLGRAIEIWRKVEEKRERGEEIRVFLGYTSNIISSGLREIIAWLVKEKKVDVIVTTAGGVEEDFIKSLKPFILGDWEVDDAELRKKGVNRIGNIFVPNDRYIEFEKYMIPFFERVLKIEEKLSRPLTASEFIYEMGRYMDEKLGKEKEKSVIYWAYKNNIPIFCPAITDGSIGDMLYFFKEERRDSRLIIDIANDIVKLNNLAITAKETASIILGGSLPKHAIINANLFRGGTDYAIYISTAVPWDGSLSGAPPREGVSWGKIKAKADYVEVWGDATLIFPILVWMVMKARGQGYAQ
notes: deoxyhypusine synthase (DHS), Pyrococcus horikoshii OT3, UniProtKB O50105, residues 1-342 (342 residues in all, 39 kDa); Homotetramer (dimer of dimers, D2); The His6 tag was removed with TEV protease at the site Glu-Asn-Leu-Tyr-Phe-Gln-Gly, so a residue of the site may remain at the N-terminus; also called PhoDHS; DHS; not shown: His6, N-terminal, cleaved
stoichiometry N: 4
